Assay results taken from patent US6365161.

Legend:
[1] = target: human FcγRI (CD64) on cells (human) (UniProt P12314); assay: flow cytometry, fluorescein-conjugated antibody on peripheral blood monocytes
Target sequence in this assay (P12314 16-374): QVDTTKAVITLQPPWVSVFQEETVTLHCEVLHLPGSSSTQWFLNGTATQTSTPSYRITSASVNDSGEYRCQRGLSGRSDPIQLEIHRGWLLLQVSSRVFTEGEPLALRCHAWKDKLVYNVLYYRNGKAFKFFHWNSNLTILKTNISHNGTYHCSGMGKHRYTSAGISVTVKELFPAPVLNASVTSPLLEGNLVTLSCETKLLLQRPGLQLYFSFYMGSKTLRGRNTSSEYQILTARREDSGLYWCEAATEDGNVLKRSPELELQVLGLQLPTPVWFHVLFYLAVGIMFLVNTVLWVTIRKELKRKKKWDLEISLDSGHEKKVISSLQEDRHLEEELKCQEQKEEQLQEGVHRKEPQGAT

[2] = target: soluble fusion protein consisting of the extracellular domain of human FcγRI and human IgM heavy chain (sFcγRI-µ) (human) (UniProt P12314); assay: ELISA on captured FcγRI/IgM heavy chain fusion protein, against a nonspecific human IgG1
[3] = target: soluble fusion protein consisting of the extracellular domain of human FcγRI and human IgM heavy chain (sFcγRI-µ) (human) (UniProt P12314); assay: ELISA on captured FcγRI/IgM heavy chain fusion protein, in excess human IgG1
[4] = target: human FcγRI (CD64) on cells (human) (UniProt P12314); assay: cell-based or functional assay

Chain of soluble fusion protein consisting of the extracellular domain of human FcγRI and human IgM heavy chain (sFcγRI-µ) (human) (P12314 other isoform, or with tags, fused parts or gaps limits assumed): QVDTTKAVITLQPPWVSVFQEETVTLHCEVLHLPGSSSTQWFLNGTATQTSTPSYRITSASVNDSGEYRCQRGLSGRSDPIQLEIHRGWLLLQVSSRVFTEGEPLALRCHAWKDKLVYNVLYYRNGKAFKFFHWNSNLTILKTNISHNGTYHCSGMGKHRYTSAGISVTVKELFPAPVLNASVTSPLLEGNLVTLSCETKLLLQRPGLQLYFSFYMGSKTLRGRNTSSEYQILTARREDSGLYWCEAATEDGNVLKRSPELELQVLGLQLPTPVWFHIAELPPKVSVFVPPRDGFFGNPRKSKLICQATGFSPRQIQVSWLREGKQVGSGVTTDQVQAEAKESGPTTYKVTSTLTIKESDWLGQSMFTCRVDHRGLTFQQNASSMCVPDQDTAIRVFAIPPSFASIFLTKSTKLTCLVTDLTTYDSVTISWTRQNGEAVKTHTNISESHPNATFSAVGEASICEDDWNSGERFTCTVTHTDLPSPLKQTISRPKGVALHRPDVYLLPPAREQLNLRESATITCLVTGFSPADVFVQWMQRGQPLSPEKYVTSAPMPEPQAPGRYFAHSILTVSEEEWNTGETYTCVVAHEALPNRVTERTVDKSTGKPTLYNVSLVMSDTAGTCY

murine anti-FcγRI monoclonal antibody M22
Antibody sites per cell (antibody sites per cell) [1]: 10000

NEWM VH/REI Vκ humanized mAb 22 (antibody)
percent of binding via the Fv portion [2]: > 95%
fold lower affinity than the chimeric mAb [3]: 5 fold

chemically linked M22 Fab′ multimer M22 F(ab′)3+
human CD64 surface expression on macrophages of human CD64-transgenic mice [4]: < 50 % reduction

TsAb m22 Fab′x32.2 Fab′xm22 Fab′
FcγRI expression on monocytes in whole blood (modulation assay) (% of the level prior to BsAb treatment) [4]: 50
